Sequences and labels used below:
B1: H2-Kb / Ed9 (parent complex)
chain 1: AQSVTQPDARVTVSEGASLQLRCKYSYFGTPYLFWYVQYPRQGLQLLLKYYPGDPVVQGVNGFEAEFSKSNSSFHLRKASVHWSDWAVYFCAVSITGGYKVVFGSGTRLLVSP
chain 2: DSGVVQSPRHIIKEKGGRSVLTCIPISGHSNVVWYQQTLGKELKFLIQHYEKVERDKGFLPSRFSVQQFDDYHSEMNMSALELEDSAMYFCASSPRQSDYTFGSGTRLLVI
chain 3: not shown
chain 4: IQKTPQIQVYSRHPPENGKPNILNCYVTQFHPPHIEIQMLKNGKKIPKVEMSDMSFSKDWSFYILAHTEFTPTETDTYACRVKHDSMAEPKTVYWDRDM
chain 5: SIINFEKL

The variants in the experiment derive from B1. As to the kind of experiment: % of reporter cells activated (NFAT-GFP), raw. Further: test concentration or dose not given here.
As to chain 5 F5W, the ratio to parent came out at 1.22.
For chain 5 F5G, the ratio to parent is 1.05.
chain 5 F5R: the ratio to parent came out at 1.31.
Regarding chain 5 F5I, the ratio to parent came out at 1.14.
Consider chain 5 F5P, for which the ratio to parent was 0.552.
Turning to chain 5 F5D, the ratio to parent amounted to 0.945.
On to chain 5 F5C, for which the ratio to parent was 1.26.
Consider chain 5 F5A, for which the ratio to parent amounted to 1.33.
The value for chain 5 F5T was 1.38.
Next, chain 5 F5K: 1.09.
With chain 5 N4R, the ratio to parent amounted to 0.572.
Consider chain 5 N4I, for which the ratio to parent worked out at 0.41.
With chain 5 N4M, the ratio to parent was 0.00718.
On to chain 5 N4K, for which the ratio to parent worked out at 0.364.
On to chain 5 N4C, for which the ratio to parent is 0.0443.
With chain 5 N4G, the ratio to parent stood at 0.0077.
Take chain 5 N4H: the ratio to parent was determined as 0.294.
Regarding chain 5 N4Y, the ratio to parent worked out at 0.0572.
For the variant chain 5 N4W, the ratio to parent is 0.0561.
The value for chain 5 N4L was 0.608.
For the variant chain 5 K7H, the ratio to parent is 0.723.
Regarding chain 5 K7Q, the ratio to parent worked out at 0.798.
Next, chain 5 K7R: 0.982.
Turning to chain 5 K7D, the ratio to parent stood at 0.294.
Consider chain 5 K7S, for which the ratio to parent is 0.969.
chain 5 K7N: the ratio to parent was found to be 0.332.
Turning to chain 5 K7L, the ratio to parent stood at 0.719.
Regarding chain 5 K7C, the ratio to parent is 0.432.
As to chain 5 K7F, the ratio to parent is 0.296.
Take chain 5 K7Y: the ratio to parent is 0.668.
On to chain 5 K7G, for which the ratio to parent amounted to 0.473.
As for chain 5 K7W, the ratio to parent came to 0.781.
As to chain 5 E6V, the ratio to parent came to 0.409.
Take chain 5 E6G: the ratio to parent was 0.597.
The value for chain 5 E6T was 0.702; that for chain 5 E6K was 0.795.
For chain 5 E6R, the ratio to parent turned out to be 0.329.
With chain 5 E6A, the ratio to parent stood at 0.437.
Take chain 5 E6P: the ratio to parent is 0.155.
For the variant chain 5 E6L, the ratio to parent was determined as 0.0232.
Next, chain 5 E6F: 0.0676; chain 5 E6I: 0.449.
For the variant chain 5 S1Q, the ratio to parent came out at 0.0362.
Regarding chain 5 S1M, the ratio to parent was found to be 0.0181.
For the variant chain 5 S1H, the ratio to parent is 0.543.
chain 5 S1K: the ratio to parent was determined as 0.424.
Next, chain 5 S1E: 0.0209.
As to chain 5 S1N, the ratio to parent worked out at 0.0383.
Next, chain 5 S1T: 0.381; chain 5 S1Y: 0.802; chain 5 S1W: 0.126.
In the case of chain 5 I2S, the ratio to parent stood at 1.18.
chain 5 I2C: the ratio to parent was found to be 1.22.
Next, chain 5 I2W: 0.799; chain 5 I2K: 1.
Take chain 5 I2T: the ratio to parent was found to be 1.22.
On to chain 5 I2A, for which the ratio to parent stood at 1.21.
As for chain 5 I2G, the ratio to parent worked out at 1.06.
In the case of chain 5 I3W, the ratio to parent was 0.753.
Regarding chain 5 I3G, the ratio to parent was 0.446.
For chain 5 I3K, the ratio to parent was 0.907.
As to chain 5 I3M, the ratio to parent was 0.914.
Turning to chain 5 I3P, the ratio to parent was found to be 0.819.
For chain 5 I3T, the ratio to parent amounted to 0.43.
Regarding chain 5 I3N, the ratio to parent was determined as 0.336.
Take chain 5 I3D: the ratio to parent came to 0.484.
In the case of chain 5 I3R, the ratio to parent was 0.385.
For chain 5 I3Q, the ratio to parent came to 0.728.
Next, chain 5 L8E: 0.892; chain 5 L8Q: 1.18; chain 5 L8R: 1.13.
Regarding chain 5 L8V, the ratio to parent came out at 0.958.
With chain 5 L8M, the ratio to parent is 1.14.
In the case of chain 5 L8D, the ratio to parent worked out at 0.803.
Next, chain 5 L8A: 1.08.

(Values after paper PMC11480844 (2024).)
